The target in the assay is Hexa-His tag amidated peptide HHHHHH-CONH2. The assay can be described thus: peptides on microspheres, PE anti-mouse IgG, Luminex.

One substance from patent publication US20160054331A1 can be followed below.

“anti-C-term His tag antibody 3D5 (Invitrogen, Carlsbad, Calif.)” registered a binding remaining after amidation of the C terminus (percent) below 15%.
